Assay results from PMC4469479.

Substrate: NCCc1ccc(O)c(O)c1
Test: cells, lysate or membranes
Conditions: other: HEK293S cells; 14C-DA 0.3–60 μM; s.e.m.; pH 7.4

B1: dDATwt (Drosophila melanogaster) (protein)
chain: MSPTGHISKSKTPTPHDNDNNSISDERETWSGKVDFLLSVIGFAVDLANVWRFPYLCYKNGGGAFLVPYGIMLVVGGIPLFYMELALGQHNRKGAITCWGRLVPLFKGIGYAVVLIAFYVDFYYNVIIAWSLRFFFASFTNSLPWTSCNNIWNTPNCRPFESQNASRVPVIGNYSDLYAMGNQSLLYNETYMNGSSLDTSAVGHVEGFQSAASEYFNRYILELNRSEGIHDLGAIKWDMALCLLIVYLICYFSLWKGISTSGKVVWFTALFPYAVLLILLIRGLTLPGSFLGIQYYLTPNFSAIYKAEVWVDAATQVFFSLGPGFGVLLAYASYNKYHNNVYKDALLTSFINSATSFIAGFVIFSVLGYMAHTLGVRIEDVATEGPGLVFVVYPAAIATMPASTFWALIFFMMLLTLGLDSSFGGSEAIITALSDEFPKIKRNRELFVAGLFSLYFVVGLASCTQGGFYFFHLLDRYAAGYSILVAVFFEAIAVSWIYGTNRFSEDIRDMIGFPPGRYWQVCWRFVAPIFLLFITVYGLIGYEPLTYADYVYPSWANALGWCIAGSSVVMIPAVAIFKLLSTPGSLRQRFTILTTPWRDQQSMAMVLNGVTTEVTVVRLTDTETAKEPVDV
Km: 2.1 ± 0.7 µM
